Test results: paper PMC314469, “Protein Interaction Networks by Proteome Peptide Scanning” (PLoS Biology, 2004)

T1: Yhr016c SH3 (YSC84_YEAST), P32793
T1 chain: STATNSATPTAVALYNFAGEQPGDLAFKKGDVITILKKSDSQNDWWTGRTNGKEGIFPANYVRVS

T2: Boi1 SH3 (BOI1_YEAST), P38041
T2 chain: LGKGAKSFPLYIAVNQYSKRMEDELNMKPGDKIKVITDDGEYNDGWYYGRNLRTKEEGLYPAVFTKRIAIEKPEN

T3: Myo5 SH3 (MYO5_YEAST), Q04439
T3 chain: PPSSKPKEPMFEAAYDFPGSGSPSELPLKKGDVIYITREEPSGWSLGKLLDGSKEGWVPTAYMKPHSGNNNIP

T4: Yfr024 SH3 (LSB3_YEAST), P43603
T4 chain: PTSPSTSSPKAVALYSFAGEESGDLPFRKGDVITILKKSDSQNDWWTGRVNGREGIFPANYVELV

T5: Rvs167 SH3 (RV167_YEAST), P39743
T5 chain: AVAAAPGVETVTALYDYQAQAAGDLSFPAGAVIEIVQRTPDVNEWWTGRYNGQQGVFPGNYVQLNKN

T6: Boi2 SH3 (BOI2_YEAST), P39969
T6 chain: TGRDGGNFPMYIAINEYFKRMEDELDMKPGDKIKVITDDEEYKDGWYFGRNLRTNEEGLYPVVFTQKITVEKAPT


What was measured:
Assay in all cases: SPOT array
[1] = biological target: T1, Yhr016c SH3 (YSC84_YEAST), P32793
[2] = biological target: T2, Boi1 SH3 (BOI1_YEAST), P38041
[3] = biological target: T3, Myo5 SH3 (MYO5_YEAST), Q04439
[4] = biological target: Sho1 SH3 (SHO1_YEAST), P40073
[5] = biological target: T4, Yfr024 SH3 (LSB3_YEAST), P43603
[6] = biological target: T5, Rvs167 SH3 (RV167_YEAST), P39743
[7] = biological target: T6, Boi2 SH3 (BOI2_YEAST), P39969

Chain of Sho1 SH3 (SHO1_YEAST), P40073 (P40073 295-366): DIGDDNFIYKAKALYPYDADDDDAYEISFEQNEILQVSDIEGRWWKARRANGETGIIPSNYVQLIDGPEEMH

Binder	normalised SPOT signal, Boehringer light units (BLU); mean over the file's lines of this peptide [1]	normalised SPOT signal, Boehringer light units (BLU); mean over the file's lines of this peptide [2]	normalised SPOT signal, Boehringer light units (BLU); mean over the file's lines of this peptide [3]	normalised SPOT signal, Boehringer light units (BLU); mean over the file's lines of this peptide [4]	normalised SPOT signal, Boehringer light units (BLU); mean over the file's lines of this peptide [5]	normalised SPOT signal, Boehringer light units (BLU); mean over the file's lines of this peptide [6]	normalised SPOT signal, Boehringer light units (BLU); mean over the file's lines of this peptide [7]
PQTMRQAPKRPDAD [YNL298W 493-506]	6220	350	3260	121	15700	3750	743
PKTGKPLPTQPSSS [YKR001C 557-570]	24.1	609	193	22000	89.9	64.7	9.7
PSAMKLVPSIPPAT [YBR154C 118-131]	63.3	89.4	561	42.6	251	45.4	21.6
PPQMRSNPQQPPQD [YPL204W 472-485]	456	92.2	268	56.5	3150	306	194
PKKSRVLPPLPFPL [YER032W 884-897]	3660	940	3590	25000	12800	18900	16.2
PNPLKKAPIPPLAY [YPR059C 36-49]	16.4	73.1	137	20.3	15.3	28.8	0
PKSPKAYPKLPDIQ [YDL117W 352-365]	24.1	409	357	143	83.8	0	23.5
PQQNRPLPQLPNRN [YOR181W 307-320]	50100	3740	186	31600	36200	53800	4.1
PPPPRRGPAPPPPP [YOR181W 345-358]	39.4	4340	15000	8.1	212	57	19.8
PRSKKKKPAPPTLL [YMR039C 165-178]	37.5	84.3	413	57.4	157	49.7	17.2
PPLPRAPPVPPATF [YJL021C 6-19]	10.8	152	35900	29.4	135	17.7	13.2
PPNYKQQPNSPSSN [YLR183C 18-31]	30.5	61	148	27.6	184	1	17.5
PPSIRKQPIAPDVL [YJR092W 754-767]	29.6	220	150	25.8	450	49.5	13.5
PLRERIIPILPANS [YMR164C 159-172]	84.4	340	175	950	949	261	16
PPRFKNFPTLPSKI [YLL015W 59-72]	87.6	572	634	3830	2550	210	60.1
PSHYRNIPYNPATF [YBR194W 90-103]	11.3	188	175	65.2	100	27.8	8.5
